Measured values taken from publication PMC9352680, “A comprehensive thermodynamic model for RNA binding by the Saccharomyces cerevisiae Pumilio protein PUF4”.
Changes are numbered by the printed parent chain. In names and notes the source's numbering stands.

B1: Ib_S2_P3E.1_K3.1_C3.1_H3.1_A3.1_[A6G]_F3.1_[T7C]_T3.1 (ssRNA)
RNA: UUUGAUUAAUAUGAUAUCGUUCUUUCUUGUAUGCAUUCUUUCUCGAUAUCAUAUUAAUCUUU
B2: Ie_S2_P3E.2_K3.1_C3.2_H3.1_[+1C]_A3.1_F3.1_T3.2 (ssRNA)
RNA: UUUGAUUAAUAUGAUAUCGUUCUUUCUCUUCGUAUAUAUAUUCUUUCUCGAUAUCAUAUUAAUCUUU
B3: Ie_S2_P3E.2_K3.1_C3.2_H3.1_[+1TC]_A3.1_F3.1_T3.2 (ssRNA)
RNA: UUUGAUUAAUAUGAUAUCGUUCUUUCUCUUUCGUAUAUAUAUUCUUUCUCGAUAUCAUAUUAAUCUUU
B4: Ie_S2_P3E.2_K3.1_C3.2_H3.1_[+1CCC]_A3.1_F3.1_T3.2 (ssRNA)
RNA: UUUGAUUAAUAUGAUAUCGUUCUUUCUCUUCCCGUAUAUAUAUUCUUUCUCGAUAUCAUAUUAAUCUUU
B5: Ie_S2_P3E.2_K3.1_C3.2_H3.1_[+1TCC]_A3.1_F3.1_T3.2 (ssRNA)
RNA: B4 RNA with C31U
B6: Ie_S2_P3E.2_K3.1_C3.2_H3.1_[+1TTC]_A3.1_F3.1_T3.2 (ssRNA)
RNA: B4 RNA with C31U, C32U
B7: Ie_S2_P3E.2_K3.1_C3.2_H3.1_[+1CCTC]_A3.1_F3.1_T3.2 (ssRNA)
RNA: UUUGAUUAAUAUGAUAUCGUUCUUUCUCUUCCUCGUAUAUAUAUUCUUUCUCGAUAUCAUAUUAAUCUUU
B8: Ie_S2_P3E.2_K3.1_C3.2_H3.1_[+1CCCT]_A3.1_F3.1_T3.2 (ssRNA)
RNA: B7 RNA with U33C, C34U
B9: Ie_S2_P3E.2_K3.1_C3.2_H3.1_[+1TCTCT]_A3.1_F3.1_T3.2 (ssRNA)
RNA: UUUGAUUAAUAUGAUAUCGUUCUUUCUCUUUCUCUGUAUAUAUAUUCUUUCUCGAUAUCAUAUUAAUCUUU
B10: Ie_S2_P3E.2_K3.1_C3.2_H3.1_[+1CCTCT]_A3.1_F3.1_T3.2 (ssRNA)
RNA: B9 RNA with U31C
B11: Ie_S2_P3E.2_K3.1_C3.2_H3.1_[+1TTCCT]_A3.1_F3.1_T3.2 (ssRNA)
RNA: B9 RNA with C32U, U33C
B12: Ic_S2_P3E.1_K3.1_C3.1_H3.1_A3.1_[A6C]_F3.1_[T7C]_T3.1 (ssRNA)
RNA: B1 RNA with G33C
B13: Ie_S2_P3E.2_K3.1_C3.2_H3.1_[+1CCCTT]_A3.1_F3.1_T3.2 (ssRNA)
RNA: B9 RNA with U31C, U33C, C34U
B14: Ie_S2_P3E.2_K3.1_C3.2_H3.1_[+2T]_A3.1_F3.1_T3.2 (ssRNA)
RNA: B2 RNA with C31G, G32U
B15: Ie_S2_P3E.2_K3.1_C3.2_H3.1_[+2CC]_A3.1_F3.1_T3.2 (ssRNA)
RNA: B3 RNA with U31G, G33C
B16: Ie_S2_P3E.2_K3.1_C3.2_H3.1_[+2CT]_A3.1_F3.1_T3.2 (ssRNA)
RNA: B3 RNA with U31G, G33U
B17: Ie_S2_P3E.2_K3.1_C3.2_H3.1_[+3CT]_A3.1_F3.1_T3.2 (ssRNA)
RNA: B3 RNA with U31G, C32U, G33C
B18: Ie_S2_P3E.2_K3.1_C3.2_H3.1_[+2TT]_A3.1_F3.1_T3.2 (ssRNA)
RNA: B3 RNA with U31G, C32U, G33U
B19: Ie_S2_P3E.2_K3.1_C3.2_H3.1_[+2CTC]_A3.1_F3.1_T3.2 (ssRNA)
RNA: B4 RNA with C31G, C33U, G34C
B20: Ie_S2_P3E.2_K3.1_C3.2_H3.1_[+2TCC]_A3.1_F3.1_T3.2 (ssRNA)
RNA: B4 RNA with C31G, C32U, G34C
B21: Ie_S2_P3E.2_K3.1_C3.2_H3.1_[+2TTC]_A3.1_F3.1_T3.2 (ssRNA)
RNA: B4 RNA with C31G, C32U, C33U, G34C
B22: Ie_S2_P3E.2_K3.1_C3.2_H3.1_[+2TCT]_A3.1_F3.1_T3.2 (ssRNA)
RNA: B4 RNA with C31G, C32U, G34U
B23: Ic_S2_P3E.1_K3.1_C3.1_H3.1_A3.1_[A6T]_F3.1_[T7C]_T3.1 (ssRNA)
RNA: B1 RNA with G33U
B24: Ie_S2_P3E.2_K3.1_C3.2_H3.1_[+2CTT]_A3.1_F3.1_T3.2 (ssRNA)
RNA: B4 RNA with C31G, C33U, G34U
B25: Ie_S2_P3E.2_K3.1_C3.2_H3.1_[+2TTT]_A3.1_F3.1_T3.2 (ssRNA)
RNA: B4 RNA with C31G, C32U, C33U, G34U
B26: Ie_S2_P3E.2_K3.1_C3.2_H3.1_[+2CTCT]_A3.1_F3.1_T3.2 (ssRNA)
RNA: B7 RNA with C31G, G35U
B27: Ie_S2_P3E.2_K3.1_C3.2_H3.1_[+3CTCT]_A3.1_F3.1_T3.2 (ssRNA)
RNA: B7 RNA with C31G, C32U, U33C, C34U, G35C
B28: Ie_S2_P3E.2_K3.1_C3.2_H3.1_[+2CCTC]_A3.1_F3.1_T3.2 (ssRNA)
RNA: B7 RNA with C31G, U33C, C34U, G35C
B29: Ie_S2_P3E.2_K3.1_C3.2_H3.1_[+2CCCT]_A3.1_F3.1_T3.2 (ssRNA)
RNA: B7 RNA with C31G, U33C, G35U
B30: Ie_S2_P3E.2_K3.1_C3.2_H3.1_[+2CTCTC]_A3.1_F3.1_T3.2 (ssRNA)
RNA: B9 RNA with U31G, G36C
B31: Ie_S2_P3E.2_K3.1_C3.2_H3.1_[+2TCTCT]_A3.1_F3.1_T3.2 (ssRNA)
RNA: B9 RNA with U31G, C32U, U33C, C34U, U35C, G36U
B32: Ie_S2_P3E.2_K3.1_C3.2_H3.1_[+2CCTCT]_A3.1_F3.1_T3.2 (ssRNA)
RNA: B9 RNA with U31G, U33C, C34U, U35C, G36U
B33: Ie_S2_P3E.2_K3.1_C3.2_H3.1_[+2TTCCT]_A3.1_F3.1_T3.2 (ssRNA)
RNA: B9 RNA with U31G, C32U, U35C, G36U
B34: Ic_S2_P3E.1_K3.1_C3.1_H3.1_A3.1_[A6C]_F3.1_[T7A]_T3.1 (ssRNA)
RNA: B1 RNA with G33C, C34A
B35: Ie_S2_P3E.2_K3.1_C3.2_H3.1_[+3CC]_A3.1_F3.1_T3.2 (ssRNA)
RNA: B3 RNA with U31G, C32U, G33C, U34C
B36: Ie_S2_P3E.2_K3.1_C3.2_H3.1_[+3TC]_A3.1_F3.1_T3.2 (ssRNA)
RNA: B3 RNA with U31G, C32U, G33U, U34C
B37: Ie_S2_P3E.2_K3.1_C3.2_H3.1_[+3CCC]_A3.1_F3.1_T3.2 (ssRNA)
RNA: B4 RNA with C31G, C32U, G34C, U35C
B38: Ie_S2_P3E.2_K3.1_C3.2_H3.1_[+3CTC]_A3.1_F3.1_T3.2 (ssRNA)
RNA: B4 RNA with C31G, C32U, G34U, U35C
B39: Ie_S2_P3E.2_K3.1_C3.2_H3.1_[+3TTC]_A3.1_F3.1_T3.2 (ssRNA)
RNA: B4 RNA with C31G, C32U, C33U, G34U, U35C
B40: Ie_S2_P3E.2_K3.1_C3.2_H3.1_[+3CCTC]_A3.1_F3.1_T3.2 (ssRNA)
RNA: B7 RNA with C31G, C32U, U33C, G35U, U36C
B41: Ie_S2_P3E.2_K3.1_C3.2_H3.1_[+3CCCT]_A3.1_F3.1_T3.2 (ssRNA)
RNA: B7 RNA with C31G, C32U, U33C, G35C
B42: Ie_S2_P3E.2_K3.1_C3.2_H3.1_[+3CTCTC]_A3.1_F3.1_T3.2 (ssRNA)
RNA: B9 RNA with U31G, C32U, U33C, C34U, U35C, G36U, U37C
B43: Ie_S2_P3E.2_K3.1_C3.2_H3.1_[+3TTCCT]_A3.1_F3.1_T3.2 (ssRNA)
RNA: B9 RNA with U31G, C32U, C34U, U35C, G36C
B44: Ie_S2_P3E.2_K3.1_C3.2_H3.1_[+3CCCTT]_A3.1_F3.1_T3.2 (ssRNA)
RNA: B9 RNA with U31G, C32U, U33C, U35C, G36U
B45: Ic_S2_P3E.1_K3.1_C3.1_H3.1_A3.1_[A6T]_F3.1_[T7A]_T3.1 (ssRNA)
RNA: B1 RNA with G33U, C34A
B46: Ie_S2_P3E.2_K3.1_C3.2_H3.1_[+4C]_A3.1_F3.1_T3.2 (ssRNA)
RNA: B2 RNA with C31G, G32U, U33A, A34C
B47: Ie_S2_P3E.2_K3.1_C3.2_H3.1_A3.1_[+5T]_F3.1_T3.2 (ssRNA)
RNA: B2 RNA with C31G, G32U, U33A, A34U
B48: Ie_S2_P3E.2_K3.1_C3.2_H3.1_[+4CC]_A3.1_F3.1_T3.2 (ssRNA)
RNA: B3 RNA with U31G, C32U, G33A, U34C, A35C
B49: Ie_S2_P3E.2_K3.1_C3.2_H3.1_A3.1_[+5CT]_F3.1_T3.2 (ssRNA)
RNA: B3 RNA with U31G, C32U, G33A, A35C
B50: Ie_S2_P3E.2_K3.1_C3.2_H3.1_[+4CCC]_A3.1_F3.1_T3.2 (ssRNA)
RNA: B4 RNA with C31G, C32U, C33A, G34C, U35C, A36C
B51: Ie_S2_P3E.2_K3.1_C3.2_H3.1_[+4CCT]_A3.1_F3.1_T3.2 (ssRNA)
RNA: B4 RNA with C31G, C32U, C33A, G34C, U35C, A36U

Target: T1, PUF4 RNA-binding domain (Saccharomyces cerevisiae, UniProt P25339 537-888)
T1 sequence: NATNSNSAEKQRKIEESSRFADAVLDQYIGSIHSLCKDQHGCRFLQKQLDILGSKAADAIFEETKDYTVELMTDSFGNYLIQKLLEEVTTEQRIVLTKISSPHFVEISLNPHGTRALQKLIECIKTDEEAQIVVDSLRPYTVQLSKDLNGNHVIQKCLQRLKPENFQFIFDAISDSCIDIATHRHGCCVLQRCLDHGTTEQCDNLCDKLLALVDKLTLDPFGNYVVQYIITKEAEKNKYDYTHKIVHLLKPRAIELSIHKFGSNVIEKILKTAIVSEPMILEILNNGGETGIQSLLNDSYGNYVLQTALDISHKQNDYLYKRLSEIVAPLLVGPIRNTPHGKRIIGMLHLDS
Assay: Mg; RNA-MaP; 20 mM Na-HEPES pH 7.4, 30 mM KOAc, 0.75 mM MgCl2, 0.1% Tween-20, 5% glycerol, 0.1 mg/mL BSA, 2 mM DTT; 25 C; 0.0125-409.6 nM protein
Conditions: tags: N-His6-TEV cleaved; C-SNAP kept, Cy3B-labelled; label: tethered on chip by stalled RNA polymerase

Row | Binder | Kd [nM]
1 | B1 | 198
2 | B2 | 34.5
3 | B3 | 39
4 | B4 | 31.2
5 | B5 | 44.3
6 | B6 | 36.5
7 | B7 | 52.3
8 | B8 | 0.515
9 | B9 | 1.44
10 | B10 | 1.11
11 | B11 | 1.16
12 | B12 | 148
13 | B13 | 1.15
14 | B14 | 8.08
15 | B15 | 102
16 | B16 | 93
17 | B17 | 28.3
18 | B18 | 14.6
19 | B19 | 63.2
20 | B20 | 9.73
21 | B21 | 6.23
22 | B22 | 15.5
23 | B23 | 114
24 | B24 | 65.6
25 | B25 | 10.7
26 | B26 | 62.1

Row | Binder | Kd [nM]
27 | B27 | 21.2
28 | B28 | 162
29 | B29 | 67.5
30 | B30 | 61.8
31 | B31 | 21.5
32 | B32 | 112
33 | B33 | 16.3
34 | B34 | 107
35 | B35 | 34
36 | B36 | 12.9
37 | B37 | 13.5
38 | B38 | 17.3
39 | B39 | 8.9
40 | B40 | 62.8
41 | B41 | 30.4
42 | B42 | 76.4
43 | B43 | 19.1
44 | B44 | 35.7
45 | B45 | 56.9
46 | B46 | 0.5
47 | B47 | 1.52
48 | B48 | 2.33
49 | B49 | 3.75
50 | B50 | 1.82
51 | B51 | 1.4
